Measurements taken from patent US9120851B2, “Human antibodies to human angiopoietin-like protein 4” (Regeneron Pharmaceuticals, Inc., priority 2009, dated 2015).
Where a chain is given by its changes, count along the chain named.

Assays:
hANGPTL5-His = biological target: T1, hANGPTL5-His (Homo sapiens, UniProt Q86XS5); experiment: BIACORE cross-reactivity, amine coupled hANGPTL5-His; assay type: binding; conditions: for Specific RU, hANGPTL5-His: chip surface 5265 RU, mAb injected at 3.125-50 μg/mL
T1 construct: His; purchased Abnova Corp. H00253935-P01
Description: Possible cross-reactivity of the anti-hANGPTL4 antibodies to related proteins, i.e., hANGPTL3, human angiopoietin-like protein 5 (hANGPTL5) and mouse ANGPTL4 (mANGPTL4), was tested for the selected antibodies, i.e., H1H268P and H1H284P, using the BIACORE™ system. Briefly, anti-hANGPTL4 antibodies as well as negative controls, i.e., two monoclonal antibodies (Control a and Control b) that are non-binders to any ANGPTL proteins, were injected at 3.125 μg/mL-50 μg/mL over amine coupled chip surfaces of hANGPTL3-His (R&D Systems, cat #3829-AN) at 5228 RU, hANGPTL4-His (R&D Systems, cat #4487-AN) at 6247 RU, hANGPTL5-His (Abnova Corp., cat #H00253935-P01) at 5265 RU, and mANGPTL4-His [R26-S410 of mANGPTL4 (SEQ ID NO: 478) fused with an AS linker to a C-terminal 6-histidine tag] at 5233 RU, respectively. A polyclonal antibody specific for hANGPTL3 (R&D System, cat #BAF3485) was also tested.

hANGPTL4(26-148)-mFc = biological target: T2, hANGPTL4(26-148)-mFc (Homo sapiens, UniProt Q9BY76); experiment: BIACORE, full mAb or Fab over anti-mFc captured hANGPTL4(26-148)-mFc; assay type: binding
T2 construct: amino acid residues 26-148 of human ANGPTL4 fused in-line to mouse IgG2a (hANGPTL4-mFc)
Description: (§1) Briefly, various concentrations (3.125 nM-100 nM) of anti-hANGPTL4 antibodies (i.e., H1H268 Fab, entire H1H268 mAb, H1H284 Fab, and entire H1H284 mAb) were injected over a low density anti-mFc captured hANGPTL4(26-148)-mFc (˜68±4 RU) surface, or the surface of amino-coupled hANGPTL4(26-406)-His (R&D Systems) (450 RU) or amino-coupled cynomolgus monkey N-terminal region (amino acid residues 1-130 of SEQ ID NO:490) expressed with an C-terminal hexa-histidine tag (MfANGPTL4(1-130)-His) (1,028 RU). Kinetic analysis was performed to measure ka and kd, and KD values and half-life of antigen/antibody complex dissociation were calculated. The results are shown in Table 4 (H1H268P) and Table 5 (H1H284P).

MfANGPTL4(1-130)-His = experiment: BIACORE, full mAb or Fab over amino-coupled MfANGPTL4(1-130)-His; assay type: binding, cynomolgus monkey; conditions: for Response bound at 50 nM mAb or Fab: amino-coupled 1,028 RU
Description: as §1

[1] = Serum human Ab levels in humanized ANGPTL4 mice, ELISA; assay type: in vivo, mouse; design: unit not given here; conditions: mean±SEM
Description: The effect of anti-hANGPTL4 antibodies H1H268P and H1H284P on serum TG levels was determined in mice expressing the ANGPTL4 protein containing the human N-terminal coil-coil region (“humanized ANGPTL4 mice”). The humanized ANGPTL4 mouse was made by replacing first three exons of the mouse Angptl4 gene (the N terminal coil-coil region) with the corresponding human N-terminal coil-coil ANGPLT4 sequence in C57BL6/129 (F1H4) embryonic stem cells. After germ line transmission was established, heterozygous mice (ANGPTL4hum/+) were bred together to generate homozygous mice [ANGPTL4hum/hum or hANGPTL4(+/+)] on a C57BL6 background. Humanized ANGPTL4 mice were pre-bled 7 days before (day −7) the experiment and put into groups of six mice each for each antibody tested. Antibodies (H1H268P, H1H284P and isotype-matched (hIgG1) control with no known cross-reactivity to mouse antigens) were administered at 10 mg/kg dose by subcutaneous injection. Mice were bled after 4 hours of fasting at days 1, 4, 7 and 11 after antibody injection; and serum TG levels were determined by ADVIA® 1800 Chemistry System (Siemens). Average TG levels were calculated for each time point for each antibody.
Levels of circulating anti-hANGPTL4 antibodies (“serum human Ab”) were also determined using a standard ELISA assay. Briefly, plates were coated with a goat anti-human Fc antibody (Sigma-Aldrich) to capture serum human Ab. Serum was then added to the plates and captured anti-hANGPTL4 antibodies were detected by chemiluminescence using a horseradish peroxidase (HRP)-conjugated goat anti-human IgG antibody (Sigma-Aldrich).

humanized ANGPTL4 mice = experiment: Serum TG, H4H268P2 and fenofibrate alone or in combination; assay type: in vivo, mouse; conditions: day 7; H4H268P2 10 mg/kg s.c. day 0; fenofibrate 0.05% (w/w) in chow
Description: The effects of the anti-ANGPTL4 antibody H4H268P2 and TG-reducing drug fenofibrate, each alone or in combination, on serum TG levels were evaluated in humanized ANGPTL4 mice. The mice were pre-bled 7 days before the experiment after 4 hours of fasting and put into 4 groups of six mice each. Groups 2 and 4 were administered with H4H268P2 at 10 mg/kg by subcutaneous injection on day 0 and groups 1 (control group) and 2 were placed on regular chow diet. Groups 3 and 4 received chow diet supplemented with 0.05% (w/w) of fenofibrate (the dosage level was determined experimentally in a pilot study). Serum was collected from a terminal bleed on day 7 after H4H268P2 and/or fenofibrate administration (after 4 hours of fasting) and analyzed by ADVIA® 1800 Chemistry System (Siemens).

[2] = tested on: humanized ANGPTL4×ApoE null mice; experiment: Serum TG levels in humanized ANGPTL4 x ApoE null mice; assay type: in vivo, mouse
Description: The effect of H4H268P2 on circulating TG levels was further studied in humanized ANGPTL4 mice crossed to ApoE null mice. The ApoE null mouse model is known as a highly atherogenic and hyperlipidemic model with the majority of cholesterol and TG circulating in VLDL particles due to impaired VLDL remnant clearance. Humanized ANGPTL4×ApoE null mice were pre-bled 7 days before the experiment and put into 2 groups of six mice each. Antibodies H4H268P2 and Control Ab were administered at 10 mg/kg by subcutaneous injection. Mice were bled after 4 hours of fasting on days 1, 4, 7, 11 and 17 after antibody injection and TG levels were determined in the serum by ADVIA® 1800 Chemistry System (Siemens). TG reductions shown in FIG. 4 are expressed as a percent of TG levels compared to Control Ab.

[3] = day 1 after injection, 10 mg/kg s.c.
[4] = day 4 after injection, 10 mg/kg s.c.
[5] = day 7 after injection, 10 mg/kg s.c.
[6] = day 11 after injection, 10 mg/kg s.c.

T2 sequence (Q9BY76 with tags, fused parts or gaps): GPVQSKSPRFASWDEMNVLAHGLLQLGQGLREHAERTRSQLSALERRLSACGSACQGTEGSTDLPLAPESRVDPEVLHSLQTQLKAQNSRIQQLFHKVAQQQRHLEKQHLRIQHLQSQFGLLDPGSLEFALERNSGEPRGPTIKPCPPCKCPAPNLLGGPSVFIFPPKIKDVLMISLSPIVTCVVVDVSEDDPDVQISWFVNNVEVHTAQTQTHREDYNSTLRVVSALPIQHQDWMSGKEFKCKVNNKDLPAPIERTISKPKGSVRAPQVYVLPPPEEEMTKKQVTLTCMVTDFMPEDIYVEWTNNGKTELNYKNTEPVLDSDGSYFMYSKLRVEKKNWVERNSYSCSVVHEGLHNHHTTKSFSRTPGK
Chain of MfANGPTL4(1-130)-His (as listed by the source): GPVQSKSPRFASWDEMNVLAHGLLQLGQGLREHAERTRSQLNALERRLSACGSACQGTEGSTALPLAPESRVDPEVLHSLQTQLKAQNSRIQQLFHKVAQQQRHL
T1 sequence (Q86XS5 26-388): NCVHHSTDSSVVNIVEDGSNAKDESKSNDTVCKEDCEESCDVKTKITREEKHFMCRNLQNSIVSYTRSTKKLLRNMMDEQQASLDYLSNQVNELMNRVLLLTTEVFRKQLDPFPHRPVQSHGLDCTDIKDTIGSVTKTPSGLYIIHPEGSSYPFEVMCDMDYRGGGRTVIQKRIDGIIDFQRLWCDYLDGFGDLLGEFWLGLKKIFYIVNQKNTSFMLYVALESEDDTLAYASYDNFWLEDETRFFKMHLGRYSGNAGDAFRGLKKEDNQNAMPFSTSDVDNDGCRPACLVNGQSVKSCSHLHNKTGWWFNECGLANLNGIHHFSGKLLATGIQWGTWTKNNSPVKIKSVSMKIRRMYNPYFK

B1: H1H284P: anti-hANGPTL4 antibody, hIgG1 isotype, HCVR/LCVR SEQ ID NOs 90/92 (antibody, V domains shown)
VH: QVQLVESGGGVVQPGRSLRLSCAASGFTFSSYGMHWVRQAPGKGLEWMAVISFDGGNKNNADSVKGRFTISRDNSKNTLYLQMNSLRAEDTAVYYCAKEGDRSGHPYFYYYGLDVWGQGTTVTVS
VL: DIQLTQSPSFLSASVGDRVTITCWASQGISSYLAWYQQKPGKAPKLLIYAASTLQSGVPSRFSGSGSETEFTLTISSLQPEDFATYYCQQLHSYPLTFGGGTKVEIK
hANGPTL5-His
  binding to hANGPTL5-His (other related ANGPTL protein), in words: did not bind
  Specific RU, hANGPTL5-His: −13 RU
hANGPTL4(26-148)-mFc; pH 5.75, 25° C.
  ka: 1.09e+06 M⁻¹ s⁻¹
  kd: 8.91e-05 s⁻¹
hANGPTL4(26-148)-mFc; pH 7.2, 25° C.
  ka: 274000 M⁻¹ s⁻¹
  kd: 5.36e-05 s⁻¹
MfANGPTL4(1-130)-His; pH 5.75, 25° C.
  ka: 1.55e+06 M⁻¹ s⁻¹
  kd: 8.42e-05 s⁻¹
  Response bound at 50 nM mAb or Fab: 804
MfANGPTL4(1-130)-His; pH 7.2, 25° C.
  ka: 467000 M⁻¹ s⁻¹
  kd: 5.83e-05 s⁻¹
  Response bound at 50 nM mAb or Fab: 414
[1]; [3]
  Serum Human Antibody: 16459 ± 1455
[1]; [4]
  Serum Human Antibody: 9103 ± 767
[1]; [5]
  Serum Human Antibody: 2428 ± 525
[1]; [6]
  Serum Human Antibody: 135 ± 38
[1]; day −7 (pre-bleed)
  Serum Human Antibody: 3.02 ± 2.38

B2: H1H268P: anti-hANGPTL4 antibody, hIgG1 isotype, HCVR/LCVR SEQ ID NOs 42/44 (antibody, V domains shown)
VH: QVQLQESGAGLLKPSETLSLTCTVYGGSFSIHHWTWIRHPPGKGLEWIGEINHRGSTNYNPSLKSRVTISIDTSKNQFSLKLSAVTAADTAVYYCARGLRFLDWLSSYFDYWGQGTLVTVSS
VL: DIQMTQSPSSLSASVGDRVTITCRASQGISDYLAWYQQKPGKVPNLLIYAASALQSGVPSRFSGSGSGTDFTLTISSLQPEDVATYYCQNYNTAPLTFGGGTKVEIK
hANGPTL5-His
  binding to hANGPTL5-His (other related ANGPTL protein), in words: did not bind
  Specific RU, hANGPTL5-His: −16 RU
hANGPTL4(26-148)-mFc; pH 5.75, 25° C.
  ka: 628000 M⁻¹ s⁻¹
  kd: 0.000138 s⁻¹
hANGPTL4(26-148)-mFc; pH 7.2, 25° C.
  ka: 153000 M⁻¹ s⁻¹
  kd: 9.59e-05 s⁻¹
MfANGPTL4(1-130)-His; pH 5.75, 25° C.
  ka: 107000 M⁻¹ s⁻¹
  kd: 8.24e-05 s⁻¹
  Response bound at 50 nM mAb or Fab: 583
MfANGPTL4(1-130)-His; pH 7.2, 25° C.
  ka: 392000 M⁻¹ s⁻¹
  kd: 4.76e-05 s⁻¹
  Response bound at 50 nM mAb or Fab: 279
[1]; [3]
  Serum Human Antibody: 24130 ± 1788
[1]; [4]
  Serum Human Antibody: 16557 ± 1369
[1]; [5]
  Serum Human Antibody: 12586 ± 1176
[1]; [6]
  Serum Human Antibody: 6106 ± 1111
[1]; day −7 (pre-bleed)
  Serum Human Antibody: 2.92 ± 2.92

B3: H4H268P2: IgG4 version of H1H268P with a single amino acid substitution in framework region 1, HCVR/LCVR SEQ ID NOs 487/44 (antibody, V domains shown)
VH: B2 VH with E6Q
VL: B2 VL
modifications: IgG4 constant region
Humanized ANGPTL4 mice
  TG levels reduced (mean) compared to control group on chow diet: ~40%
[2]; all 17 days, 10 mg/kg s.c.
  TG reduction compared to Control Ab: more than 42%
[2]; day 7, 10 mg/kg s.c.
  greatest TG reduction compared to Control Ab: ~50%
